Laboratory results taken from patent US20250136696A1 (HARBOUR BIOMED SHANGHAI, published 2025).

Tests used:
Assay in all cases: ELISA on coated B7 family protein
[1] = biological target: T1, Human B7-1/CD80 protein, Fc tag (Acro, B71-H5259) (human, UniProt P33681 35-242)
T1 construct: Bought
T1 sequence (looked up): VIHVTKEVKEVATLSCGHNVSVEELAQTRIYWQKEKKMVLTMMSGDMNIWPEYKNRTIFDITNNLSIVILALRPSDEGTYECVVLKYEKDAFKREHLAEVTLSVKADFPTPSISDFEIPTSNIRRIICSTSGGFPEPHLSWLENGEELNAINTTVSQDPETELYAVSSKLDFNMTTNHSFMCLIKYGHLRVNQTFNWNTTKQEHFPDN
Method: (§1) B7 family proteins (see Table 7 for details) were respectively diluted to […] with PBS, added into a 96-well plate (Corning, #9018) at 100 μl/well, and incubated at 4° C. overnight. After the liquid was discarded, the plate was washed 3 times with a PBST buffer (pH 7.4, containing 0.05% tween-20), 250 μl of blocking solution containing 2% BSA was added, and the plate was incubated for 1 hour at 37° C. The blocking solution was discarded, the plate was washed 3 times with PBST buffer (pH 7.4, containing 0.05% Tween-20), the antigen-binding protein to be tested was diluted to 2 concentrations of 10 nM and 1 nM, 100 μl of the diluted antigen-binding protein was added to each well, and the plate was incubated for 1 hour at 37° C., with the isotype antibody as the control. After the plate was washed 3 times with PBST buffer (pH 7.4, containing 0.05% Tween-20), goat anti-human HRP secondary antibody (Invitrogen, #A18805) diluted 5000 times was added, and the plate was incubated at 37° C. for 1 hour in the dark. After the plate was washed 3 times with PBST buffer (pH 7.4, containing 0.05% tween-20), TMB (Biopanda, #TMB-S-003) was added at 100 μl/well, and the plate was placed at room temperature for about 30 minutes in the dark; and a stop solution (BBI life sciences, #E661006-0200) was added to each well at 50 μl/well to stop the reaction, and the absorbance at 450 nm (OD450) was determined in a microplate reader (PerkinElemer, #Enspire).

[2] = biological target: T2, Human B7-2/CD86 protein, Fc tag (Acro, CD6-H5257) (human, UniProt P42081 26-247)
T2 construct: Bought
T2 sequence (looked up): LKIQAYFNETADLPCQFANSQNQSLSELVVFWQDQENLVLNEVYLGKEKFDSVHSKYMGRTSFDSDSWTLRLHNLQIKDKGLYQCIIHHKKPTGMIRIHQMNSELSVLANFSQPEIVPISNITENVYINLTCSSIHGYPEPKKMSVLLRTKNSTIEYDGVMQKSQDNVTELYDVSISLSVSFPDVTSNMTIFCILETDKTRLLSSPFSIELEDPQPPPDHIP
Method: as §1

[3] = biological target: T3, CD275/ICOS ligand protein, human, recombinant (Fc tag) (Sino Biological, 11559-H02H) (human, UniProt O75144 19-258)
T3 construct: Bought; also called B7H2
T3 sequence (looked up): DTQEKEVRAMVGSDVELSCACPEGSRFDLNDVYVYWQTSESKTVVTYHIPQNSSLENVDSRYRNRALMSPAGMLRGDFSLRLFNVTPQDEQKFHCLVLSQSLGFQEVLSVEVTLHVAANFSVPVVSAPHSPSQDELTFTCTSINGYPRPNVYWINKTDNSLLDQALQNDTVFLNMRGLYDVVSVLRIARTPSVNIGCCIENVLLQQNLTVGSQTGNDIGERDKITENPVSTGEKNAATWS
Method: as §1

[4] = biological target: T4, B7-H3/CD276 protein, human, recombinant (ECD, Fc tag) (Sino Biological, 11188-H02H) (human, UniProt Q5ZPR3 29-466)
T4 construct: extracellular domain; Bought
T4 sequence (looked up): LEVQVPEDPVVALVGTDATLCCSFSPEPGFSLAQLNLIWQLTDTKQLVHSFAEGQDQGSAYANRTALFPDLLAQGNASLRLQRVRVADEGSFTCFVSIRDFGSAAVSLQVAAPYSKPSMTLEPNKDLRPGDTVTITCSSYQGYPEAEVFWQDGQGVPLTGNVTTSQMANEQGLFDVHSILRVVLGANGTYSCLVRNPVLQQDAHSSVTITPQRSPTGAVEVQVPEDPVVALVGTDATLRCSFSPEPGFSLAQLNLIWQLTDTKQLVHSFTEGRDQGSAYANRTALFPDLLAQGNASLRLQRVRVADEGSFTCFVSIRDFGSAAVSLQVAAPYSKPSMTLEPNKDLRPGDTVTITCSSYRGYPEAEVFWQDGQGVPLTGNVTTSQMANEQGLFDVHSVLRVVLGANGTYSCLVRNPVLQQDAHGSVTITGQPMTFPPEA
Method: as §1

[5] = biological target: T5, Recombinant human B7H4 Fc chimera (R&D, 8870-B7-050) (human, UniProt Q7Z7D3 29-258)
T5 construct: Bought
T5 sequence (looked up): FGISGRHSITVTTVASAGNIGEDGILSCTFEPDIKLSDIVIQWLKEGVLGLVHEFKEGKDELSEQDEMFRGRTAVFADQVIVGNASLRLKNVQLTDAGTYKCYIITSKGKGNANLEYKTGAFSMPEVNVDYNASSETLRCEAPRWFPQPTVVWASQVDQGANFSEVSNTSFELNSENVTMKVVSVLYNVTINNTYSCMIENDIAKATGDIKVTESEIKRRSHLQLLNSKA
Method: as §1

[6] = biological target: T6, Recombinant human VISTA/B7H5/PD-1H Fc chimera (R&D, 7126-B7-050) (human, UniProt Q9H7M9 33-194)
T6 construct: Bought
Method: as §1

[7] = biological target: T7, B7-H6 /NCR3LG1 protein, human, recombinant (Fc tag) (Sino Biological, 16140-H02H) (human, UniProt Q68D85 25-262)
T7 construct: Bought
T7 sequence (looked up): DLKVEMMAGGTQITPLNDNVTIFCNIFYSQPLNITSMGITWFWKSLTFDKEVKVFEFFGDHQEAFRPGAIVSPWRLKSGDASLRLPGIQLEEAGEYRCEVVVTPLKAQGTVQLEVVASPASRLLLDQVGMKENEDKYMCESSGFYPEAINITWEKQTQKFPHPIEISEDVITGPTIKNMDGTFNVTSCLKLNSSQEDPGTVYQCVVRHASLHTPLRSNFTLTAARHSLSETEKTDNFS
Method: as §1

Measured: binding result

B1: PR004260 (antibody, human IgG1, kappa, L234A L235A)
heavy: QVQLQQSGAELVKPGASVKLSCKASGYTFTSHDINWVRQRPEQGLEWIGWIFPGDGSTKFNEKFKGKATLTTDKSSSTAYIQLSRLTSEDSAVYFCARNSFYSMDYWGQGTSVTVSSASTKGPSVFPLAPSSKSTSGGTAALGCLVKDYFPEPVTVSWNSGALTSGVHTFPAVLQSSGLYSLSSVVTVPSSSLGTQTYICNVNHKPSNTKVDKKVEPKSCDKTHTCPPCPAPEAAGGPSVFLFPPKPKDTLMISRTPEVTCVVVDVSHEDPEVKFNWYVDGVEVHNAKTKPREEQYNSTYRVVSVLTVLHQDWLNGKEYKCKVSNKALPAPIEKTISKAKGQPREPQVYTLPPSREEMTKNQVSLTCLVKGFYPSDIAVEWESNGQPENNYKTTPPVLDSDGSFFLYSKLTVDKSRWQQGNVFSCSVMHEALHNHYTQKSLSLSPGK
light: DIVMSQSPSSLAVSAGEKVTMSCKSSQSLLNSRTRKNQLAWYQQKPGQSPKLLIYWASTRESGVPDRFTGSGSGTDFTLTISSVQAEDLAVYYCKQSYNLRTFGGGTKLEIKRTVAAPSVFIFPPSDEQLKSGTASVVCLLNNFYPREAKVQWKVDNALQSGNSQESVTEQDSKDSTYSLSSTLTLSKADYEKHKVYACEVTHQGLSSPVTKSFNRGEC
notes: Variant of PR003181; Human IgG1 with LALA mutation in Fc
no binding (tested: 10 nM): all assays above

B2: PR004263 (antibody, human IgG1, kappa, L234A L235A)
heavy: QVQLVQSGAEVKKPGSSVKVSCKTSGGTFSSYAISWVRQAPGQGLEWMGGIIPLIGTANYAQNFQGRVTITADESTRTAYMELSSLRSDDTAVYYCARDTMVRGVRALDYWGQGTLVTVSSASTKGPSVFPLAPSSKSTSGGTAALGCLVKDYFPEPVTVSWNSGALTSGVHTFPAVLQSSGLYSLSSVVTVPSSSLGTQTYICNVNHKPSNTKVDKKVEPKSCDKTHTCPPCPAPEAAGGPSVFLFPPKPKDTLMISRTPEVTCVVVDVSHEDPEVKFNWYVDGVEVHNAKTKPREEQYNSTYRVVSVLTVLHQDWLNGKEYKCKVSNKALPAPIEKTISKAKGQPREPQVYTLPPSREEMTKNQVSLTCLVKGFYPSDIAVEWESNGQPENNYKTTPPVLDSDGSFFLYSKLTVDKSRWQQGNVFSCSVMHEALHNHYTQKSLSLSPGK
light: DIQLTQSPSFLSASVGDRVTITCRASQGISSYFAWYQQKPGKAPKLLIYAASTLQSGVPSRFSGSGSGTEFTLTISSLQPEDFATYYCQHLNRYPWTFGQGTKVEIKRTVAAPSVFIFPPSDEQLKSGTASVVCLLNNFYPREAKVQWKVDNALQSGNSQESVTEQDSKDSTYSLSSTLTLSKADYEKHKVYACEVTHQGLSSPVTKSFNRGEC
notes: Variant of PR003264; Human IgG1 with LALA mutation in Fc
no binding (tested: 10 nM): all assays above
